Results published in ChEMBL document CHEMBL1151784, “Antibiotic evaluation and in vivo analysis of alkynyl Coenzyme A antimetabolites in Escherichia coli” (2008).

How the values were obtained:
[1] = substrate: C#CCCC(=O)NCCNC(=O)CCNC(=O)[C@H](O)C(C)(C)CO; assay: (§1) Ratio of kcat to Km for Escherichia coli K12 CoaA
[2] = substrate: C#CCNC(=O)[C@H](O)C(C)(C)CO; assay: as §1
[3] = substrate: CCCCCNC(=O)CCNC(=O)[C@H](O)C(C)(C)CO; assay: as §1
[4] = substrate: CCC(=O)NCCNC(=O)CCNC(=O)[C@H](O)C(C)(C)CO; assay: as §1
[5] = substrate: CCOC(=O)NCCNC(=O)CCNC(=O)[C@H](O)C(C)(C)CO; assay: as §1
[6] = substrate: CC(C)(CO)[C@@H](O)C(=O)NCCC(=O)NCCN=[N+]=[N-]; assay: as §1
[7] = substrate: C#CC(=O)NCCNC(=O)CCNC(=O)[C@H](O)C(C)(C)CO; assay: as §1
[8] = substrate: C=CCNC(=O)CCNC(=O)[C@H](O)C(C)(C)CO; assay: as §1
[9] = substrate: C=CC(=O)NCCNC(=O)CCNC(=O)[C@H](O)C(C)(C)CO; assay: as §1
[10] = substrate: C#CCCCNC(=O)CCNC(=O)[C@H](O)C(C)(C)CO; assay: as §1
[11] = substrate: CC(C)(CO)[C@@H](O)C(=O)NCCC(=O)O; assay: as §1
[12] = substrate: C#CCCCCNC(=O)CCNC(=O)[C@H](O)C(C)(C)CO; assay: as §1
[13] = substrate: CCCNC(=O)CCNC(=O)[C@H](O)C(C)(C)CO; assay: as §1
[14] = substrate: CCC(=O)OCCNC(=O)CCNC(=O)[C@H](O)C(C)(C)CO; assay: as §1
[15] = substrate: C#CCNC(=O)CCNC(=O)[C@H](O)C(C)(C)CO; assay: as §1
[16] = substrate: C#CCCNC(=O)CCNC(=O)[C@H](O)C(C)(C)CO; assay: as §1
[17] = substrate: C#CCCC(=O)NCCNC(=O)CCNC(=O)[C@H](O)C(C)(C)CO; assay: (§2) Activity of Escherichia coli K12 CoaA
[18] = substrate: C#CCNC(=O)[C@H](O)C(C)(C)CO; assay: as §2
[19] = substrate: CCCCCNC(=O)CCNC(=O)[C@H](O)C(C)(C)CO; assay: as §2
[20] = substrate: CCC(=O)NCCNC(=O)CCNC(=O)[C@H](O)C(C)(C)CO; assay: as §2
[21] = substrate: CCOC(=O)NCCNC(=O)CCNC(=O)[C@H](O)C(C)(C)CO; assay: as §2
[22] = substrate: CC(C)(CO)[C@@H](O)C(=O)NCCC(=O)NCCN=[N+]=[N-]; assay: as §2
[23] = substrate: C#CC(=O)NCCNC(=O)CCNC(=O)[C@H](O)C(C)(C)CO; assay: as §2
[24] = substrate: C=CCNC(=O)CCNC(=O)[C@H](O)C(C)(C)CO; assay: as §2
[25] = substrate: C=CC(=O)NCCNC(=O)CCNC(=O)[C@H](O)C(C)(C)CO; assay: as §2
[26] = substrate: C#CCCCNC(=O)CCNC(=O)[C@H](O)C(C)(C)CO; assay: as §2
[27] = substrate: CC(C)(CO)[C@@H](O)C(=O)NCCC(=O)O; assay: as §2
[28] = substrate: C#CCCCCNC(=O)CCNC(=O)[C@H](O)C(C)(C)CO; assay: as §2
[29] = substrate: CCCNC(=O)CCNC(=O)[C@H](O)C(C)(C)CO; assay: as §2
[30] = substrate: CCC(=O)OCCNC(=O)CCNC(=O)[C@H](O)C(C)(C)CO; assay: as §2
[31] = substrate: C#CCNC(=O)CCNC(=O)[C@H](O)C(C)(C)CO; assay: as §2
[32] = substrate: C#CCCNC(=O)CCNC(=O)[C@H](O)C(C)(C)CO; assay: as §2

B1: Pantothenate kinase (Escherichia coli K-12), P0A6I3 (protein)
chain: MSIKEQTLMTPYLQFDRNQWAALRDSVPMTLSEDEIARLKGINEDLSLEEVAEIYLPLSRLLNFYISSNLRRQAVLEQFLGTNGQRIPYIISIAGSVAVGKSTTARVLQALLSRWPEHRRVELITTDGFLHPNQVLKERGLMKKKGFPESYDMHRLVKFVSDLKSGVPNVTAPVYSHLIYDVIPDGDKTVVQPDILILEGLNVLQSGMDYPHDPHHVFVSDFVDFSIYVDAPEDLLQTWYINRFLKFREGAFTDPDSYFHNYAKLTKEEAIKTAMTLWKEINWLNLKQNILPTRERASLILTKSANHAVEEVRLRK
[1]
  kcat/Km: 195 M⁻¹ s⁻¹
[2]
  kcat/Km: 27 M⁻¹ s⁻¹
[3]
  kcat/Km: 410 M⁻¹ s⁻¹
[4]
  kcat/Km: 257 M⁻¹ s⁻¹
[5]
  kcat/Km: 305 M⁻¹ s⁻¹
[6]
  kcat/Km: 268 M⁻¹ s⁻¹
[7]
  kcat/Km: 185 M⁻¹ s⁻¹
[8]
  kcat/Km: 381 M⁻¹ s⁻¹
[9]
  kcat/Km: 183 M⁻¹ s⁻¹
[10]
  kcat/Km: 299 M⁻¹ s⁻¹
[11]
  kcat/Km: 352 M⁻¹ s⁻¹
[12]
  kcat/Km: 300 M⁻¹ s⁻¹
[13]
  kcat/Km: 411 M⁻¹ s⁻¹
[14]
  kcat/Km: 392 M⁻¹ s⁻¹
[15]
  kcat/Km: 356 M⁻¹ s⁻¹
[16]
  kcat/Km: 396 M⁻¹ s⁻¹
[17]
  Km: 47.8 µM
  Vmax: 0.23 µM/s
  kcat: 0.00933 s⁻¹
[18]
  Km: 396 µM
  Vmax: 0.26 µM/s
  kcat: 0.0107 s⁻¹
[19]
  Km: 34 µM
  Vmax: 0.34 µM/s
  kcat: 0.014 s⁻¹
[20]
  Km: 34.6 µM
  Vmax: 0.22 µM/s
  kcat: 0.00883 s⁻¹
[21]
  Km: 33.7 µM
  Vmax: 0.25 µM/s
  kcat: 0.0103 s⁻¹
[22]
  Km: 43.5 µM
  Vmax: 0.28 µM/s
  kcat: 0.0115 s⁻¹
[23]
  Km: 48.5 µM
  Vmax: 0.22 µM/s
  kcat: 0.009 s⁻¹
[24]
  Km: 41.2 µM
  Vmax: 0.38 µM/s
  kcat: 0.0157 s⁻¹
[25]
  Km: 58 µM
  Vmax: 0.26 µM/s
  kcat: 0.0107 s⁻¹
[26]
  Km: 40.3 µM
  Vmax: 0.29 µM/s
  kcat: 0.012 s⁻¹
[27]
  Km: 35.8 µM
  Vmax: 0.31 µM/s
  kcat: 0.0127 s⁻¹
[28]
  Km: 40 µM
  Vmax: 0.29 µM/s
  kcat: 0.012 s⁻¹
[29]
  Km: 36.9 µM
  Vmax: 0.37 µM/s
  kcat: 0.0152 s⁻¹
[30]
  Km: 27.8 µM
  Vmax: 0.26 µM/s
  kcat: 0.0108 s⁻¹
[31]
  Km: 36 µM
  Vmax: 0.31 µM/s
  kcat: 0.0128 s⁻¹
[32]
  Km: 34 µM
  Vmax: 0.33 µM/s
  kcat: 0.0135 s⁻¹
